In publication PMC2925307 one finds stoichiometry N data, which are given here for 1 substance.

The assay deals with β subunit of Roseobacter denitrificans propionyl-coenzyme A carboxylase (Roseobacter denitrificans). Description: crystal structure.

On to “β subunit of Roseobacter denitrificans propionyl-coenzyme A carboxylase”, for which the stoichiometry N stood at 6.
